Where two headings read alike, the source gives them in different places.
What was measured:
[1] = target: T1, human RXFP1 receptor (Homo sapiens, UniProt Q9HBX9); assay: Intracellular cAMP accumulation assay; format: cell-based
T1 construct: expressed in transfected cells
T1 sequence (Q9HBX9 1-757): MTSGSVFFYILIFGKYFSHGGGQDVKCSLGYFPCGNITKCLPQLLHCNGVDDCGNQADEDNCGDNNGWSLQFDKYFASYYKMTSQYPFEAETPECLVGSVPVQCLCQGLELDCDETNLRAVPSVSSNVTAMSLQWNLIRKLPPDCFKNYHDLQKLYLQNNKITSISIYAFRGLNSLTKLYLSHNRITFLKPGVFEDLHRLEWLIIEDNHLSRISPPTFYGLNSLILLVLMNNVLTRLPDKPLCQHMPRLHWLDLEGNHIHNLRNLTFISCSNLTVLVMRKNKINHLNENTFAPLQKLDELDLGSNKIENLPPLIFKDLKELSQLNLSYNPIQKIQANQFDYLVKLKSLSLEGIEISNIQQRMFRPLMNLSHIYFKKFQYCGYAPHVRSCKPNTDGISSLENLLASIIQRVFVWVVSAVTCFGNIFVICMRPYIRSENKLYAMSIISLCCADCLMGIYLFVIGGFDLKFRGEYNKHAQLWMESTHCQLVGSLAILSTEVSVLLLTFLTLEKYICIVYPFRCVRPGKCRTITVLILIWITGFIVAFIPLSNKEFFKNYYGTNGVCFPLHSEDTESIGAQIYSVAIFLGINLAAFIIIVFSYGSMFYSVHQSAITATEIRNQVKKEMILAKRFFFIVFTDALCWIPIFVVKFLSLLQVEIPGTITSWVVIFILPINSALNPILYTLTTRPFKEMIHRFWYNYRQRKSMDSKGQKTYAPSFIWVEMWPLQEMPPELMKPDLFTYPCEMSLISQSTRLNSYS

[2] = In vivo pharmacokinetic (PK) studies in rats; design: species or system Sprague-Dawley rats; details: rat; for AUC(0-inf): read-out: Rat PK AUC Total; for level at time molar at 24 h: read-out: Rat PK C24
Summary of the method: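 Male Sprague-Dawley rats (n=3) given a single 1 mg/kg IV or SC dose of relaxin constructs in 20 mM histidine, 750 mM NaCl, pH 6.0; jugular serum sampled to 72 h. Serum relaxin by ELISA; Cmax, AUCinf, C24 and half-life from non-compartmental analysis of individual profiles.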

[3] = CHO-K1 cells stably expressing human RXFP1, 10 min at 37° C., HTRF cAMP, average, read-out: hRXFP1/CHO-K1 cAMP EC50 (nM, avg)
[4] = male Sprague-Dawley rats, single SC dose 1.0 mg/kg, serum ELISA
[5] = male, Sprague-Dawley, serum, rats, SC dose 0.8 mg/kg

| SMILES | EC50 [1, 3] [nM] | AUC(0-inf) [2, 4] [µM·h] | level at time molar at 24 h [2, 4] [nM] | EC50 [1] [nM] | AUC(0-inf) [2, 5] [µM·h] | level at time molar at 24 h [2, 5] [nM] |
| --- | --- | --- | --- | --- | --- | --- |
| CC[C@H](C)[C@@H]1NC(=O)[C@H](C)NC(=O)[C@H]([C@@H](C)CC)NC(=O)[C@H](CCC(N)=O)NC(=O)[C@H](C)NC(=O)[C@H](CCCNC(=N)N)NC(=O)[C@H](C(C)C)NC(=O)[C@H](CC(C)C)NC(=O)[C@H](CCC(=O)O)NC(=O)[C@H](CCCNC(=N)N)NC(=O)CNC(=O)[C@@H](NC(=O)[C@H](CC(C)C)NC(=O)[C@H](CCCCN)NC(=O)[C@@H](NC(=O)[C@@H](NC(=O)[C@H](CCC(=O)O)NC(=O)[C@H](CCC(=O)O)NC(=O)[C@H](CCSC)NC(=O)[C@H](Cc2c[nH]c3ccccc23)NC(=O)[C@H](CO)NC(=O)[C@H](C)N)C(C)C)[C@@H](C)CC)CSSC[C@@H]2NC(=O)[C@@H](NC(=O)[C@H](CCCCN)NC(=O)[C@H](CC(N)=O)NC(=O)[C@H](C)NC(=O)[C@H](CC(C)C)NC(=O)[C@H](C)NC(=O)[C@H](CO)NC(=O)[C@H](Cc3ccc(O)cc3)NC(=O)[C@H](CC(C)C)NC(=O)[C@@H](N)Cc3ccc(C(C)=NOCCNC(=O)[C@H](CCC(=O)O)NC(=O)[C@H](CCC(=O)O)NC(=O)[C@H](CCC(=O)O)NC(=O)CNC(=O)CNC(=O)CNC(=O)CC[C@H](NC(=O)CCCCCCCCCCCCC(=O)O)C(=O)O)cc3)CSSC[C@H](NC(=O)CNC(=O)[C@H](C(C)C)NC(=O)[C@H](Cc3c[nH]cn3)NC2=O)C(=O)N[C@@H]([C@@H](C)O)C(=O)N[C@@H](CCCCN)C(=O)N[C@@H](CCCNC(=N)N)C(=O)N[C@@H](CO)C(=O)N[C@@H](CC(C)C)C(=O)N[C@@H](C)C(=O)N[C@@H](CCCNC(=N)N)C(=O)N[C@@H](Cc2ccccc2)C(=O)N[C@H](C(=O)O)CSSC[C@@H](C(=O)NCC(=O)N[C@@H](CCSC)C(=O)N[C@@H](CO)C(=O)N[C@H](C(=O)N[C@@H](Cc2c[nH]c3ccccc23)C(=O)N[C@@H](CO)C(=O)O)[C@@H](C)O)NC1=O [AQ1-EEEGGG-Glu^γ-C13-COOH] | 0.31 | 1.38 | 0.29 | – | – | – |
| CC[C@H](C)[C@@H]1NC(=O)[C@H](C)NC(=O)[C@H]([C@@H](C)CC)NC(=O)[C@H](CCC(N)=O)NC(=O)[C@H](C)NC(=O)[C@H](CCCNC(=N)N)NC(=O)[C@H](C(C)C)NC(=O)[C@H](CC(C)C)NC(=O)[C@H](CCC(=O)O)NC(=O)[C@H](CCCNC(=N)N)NC(=O)CNC(=O)[C@@H](NC(=O)[C@H](CC(C)C)NC(=O)[C@H](CCCCN)NC(=O)[C@@H](NC(=O)[C@@H](NC(=O)[C@H](CCC(=O)O)NC(=O)[C@H](CCC(=O)O)NC(=O)[C@H](CCSC)NC(=O)[C@H](Cc2c[nH]c3ccccc23)NC(=O)[C@H](CO)NC(=O)[C@H](C)N)C(C)C)[C@@H](C)CC)CSSC[C@@H]2NC(=O)[C@@H](NC(=O)[C@H](CCCCN)NC(=O)[C@H](CC(N)=O)NC(=O)[C@H](C)NC(=O)[C@H](CC(C)C)NC(=O)[C@H](C)NC(=O)[C@H](CO)NC(=O)[C@H](Cc3ccc(O)cc3)NC(=O)[C@H](CC(C)C)NC(=O)[C@@H](N)Cc3ccc(C(C)=NOCCNC(=O)CNC(=O)CNC(=O)CNC(=O)CNC(=O)[C@@H]4CCCN4C(=O)CC[C@H](NC(=O)CCCCCCCCCCCCCC(=O)O)C(=O)O)cc3)CSSC[C@H](NC(=O)CNC(=O)[C@H](C(C)C)NC(=O)[C@H](Cc3c[nH]cn3)NC2=O)C(=O)N[C@@H]([C@@H](C)O)C(=O)N[C@@H](CCCCN)C(=O)N[C@@H](CCCNC(=N)N)C(=O)N[C@@H](CO)C(=O)N[C@@H](CC(C)C)C(=O)N[C@@H](C)C(=O)N[C@@H](CCCNC(=N)N)C(=O)N[C@@H](Cc2ccccc2)C(=O)N[C@H](C(=O)O)CSSC[C@@H](C(=O)NCC(=O)N[C@@H](CCSC)C(=O)N[C@@H](CO)C(=O)N[C@H](C(=O)N[C@@H](Cc2c[nH]c3ccccc23)C(=O)N[C@@H](CO)C(=O)O)[C@@H](C)O)NC1=O [AQ1-GGGGP-Glu^γ-C14-COOH] | – | 2.18 | 3.9 | 0.39 | – | – |
| CC[C@H](C)[C@@H]1NC(=O)[C@H](C)NC(=O)[C@H]([C@@H](C)CC)NC(=O)[C@H](CCC(N)=O)NC(=O)[C@H](C)NC(=O)[C@H](CCCNC(=N)N)NC(=O)[C@H](C(C)C)NC(=O)[C@H](CC(C)C)NC(=O)[C@H](CCC(=O)O)NC(=O)[C@H](CCCNC(=N)N)NC(=O)CNC(=O)[C@@H](NC(=O)[C@H](CC(C)C)NC(=O)[C@H](CCCCN)NC(=O)[C@@H](NC(=O)[C@@H](NC(=O)[C@H](CCC(=O)O)NC(=O)[C@H](CCC(=O)O)NC(=O)[C@H](CCSC)NC(=O)[C@H](Cc2c[nH]c3ccccc23)NC(=O)[C@H](CO)NC(=O)[C@H](C)N)C(C)C)[C@@H](C)CC)CSSC[C@@H]2NC(=O)[C@@H](NC(=O)[C@H](CCCCN)NC(=O)[C@H](CC(N)=O)NC(=O)[C@H](C)NC(=O)[C@H](CC(C)C)NC(=O)[C@H](C)NC(=O)[C@H](CO)NC(=O)[C@H](Cc3ccc(O)cc3)NC(=O)[C@H](CC(C)C)NC(=O)[C@@H](N)Cc3ccc(C(C)=NOCCNC(=O)CNC(=O)CNC(=O)CNC(=O)CNC(=O)[C@H](CO)NC(=O)CC[C@H](NC(=O)CCCCCCCCCCCCC(=O)O)C(=O)O)cc3)CSSC[C@H](NC(=O)CNC(=O)[C@H](C(C)C)NC(=O)[C@H](Cc3c[nH]cn3)NC2=O)C(=O)N[C@@H]([C@@H](C)O)C(=O)N[C@@H](CCCCN)C(=O)N[C@@H](CCCNC(=N)N)C(=O)N[C@@H](CO)C(=O)N[C@@H](CC(C)C)C(=O)N[C@@H](C)C(=O)N[C@@H](CCCNC(=N)N)C(=O)N[C@@H](Cc2ccccc2)C(=O)N[C@H](C(=O)O)CSSC[C@@H](C(=O)NCC(=O)N[C@@H](CCSC)C(=O)N[C@@H](CO)C(=O)N[C@H](C(=O)N[C@@H](Cc2c[nH]c3ccccc23)C(=O)N[C@@H](CO)C(=O)O)[C@@H](C)O)NC1=O [AQ1-GGGGS-Glu^γ-C13-COOH] | 0.14 | – | – | – | 1.1 | 1.52 |
| CC[C@H](C)[C@@H]1NC(=O)[C@H](C)NC(=O)[C@H]([C@@H](C)CC)NC(=O)[C@H](CCC(N)=O)NC(=O)[C@H](C)NC(=O)[C@H](CCCNC(=N)N)NC(=O)[C@H](C(C)C)NC(=O)[C@H](CC(C)C)NC(=O)[C@H](CCC(=O)O)NC(=O)[C@H](CCCNC(=N)N)NC(=O)CNC(=O)[C@@H](NC(=O)[C@H](CC(C)C)NC(=O)[C@H](CCCCN)NC(=O)[C@@H](NC(=O)[C@@H](NC(=O)[C@H](CCC(=O)O)NC(=O)[C@H](CCC(=O)O)NC(=O)[C@H](CCSC)NC(=O)[C@H](Cc2c[nH]c3ccccc23)NC(=O)[C@H](CO)NC(=O)[C@H](C)N)C(C)C)[C@@H](C)CC)CSSC[C@@H]2NC(=O)[C@@H](NC(=O)[C@H](CCCCN)NC(=O)[C@H](CC(N)=O)NC(=O)[C@H](C)NC(=O)[C@H](CC(C)C)NC(=O)[C@H](C)NC(=O)[C@H](CO)NC(=O)[C@H](Cc3ccc(O)cc3)NC(=O)[C@H](CC(C)C)NC(=O)[C@@H](N)Cc3ccc(/C(C)=N/OCCNC(=O)CNC(=O)[C@H](CO)NC(=O)[C@H](Cc4c[nH]cn4)NC(=O)[C@H](Cc4c[nH]cn4)NC(=O)[C@H](Cc4c[nH]cn4)NC(=O)[C@H](Cc4c[nH]cn4)NC(=O)[C@H](Cc4c[nH]cn4)NC(=O)CNC(=O)[C@H](CO)NC(=O)CC[C@H](NC(=O)CCCCCCCCCCCCC(=O)O)C(=O)O)cc3)CSSC[C@H](NC(=O)CNC(=O)[C@H](C(C)C)NC(=O)[C@H](Cc3c[nH]cn3)NC2=O)C(=O)N[C@@H]([C@@H](C)O)C(=O)N[C@@H](CCCCN)C(=O)N[C@@H](CCCNC(=N)N)C(=O)N[C@@H](CO)C(=O)N[C@@H](CC(C)C)C(=O)N[C@@H](C)C(=O)N[C@@H](CCCNC(=N)N)C(=O)N[C@@H](Cc2ccccc2)C(=O)N[C@H](C(=O)O)CSSC[C@@H](C(=O)NCC(=O)N[C@@H](CCSC)C(=O)N[C@@H](CO)C(=O)N[C@H](C(=O)N[C@@H](Cc2c[nH]c3ccccc23)C(=O)N[C@@H](CO)C(=O)O)[C@@H](C)O)NC1=O [AQ1-GSHHHHHGS-Glu^γ-C13-COOH] | 0.28 | 0.582 | 0.46 | – | – | – |
